Reference: patent US10280205B2, “Method for treating cancer with an activated T lymphocyte that selectively recognizes a cancer cell consisting of specific peptide” (immatics biotechnologies GmbH, priority 2015, dated 2019)

target: HLA-A*02:01 (Homo sapiens, UniProt P04439, D140Y/D185E/D98H/E176V/E277Q/G131W/G231S/I119V/I121R/I166T/I218V/L300P/L318F/N151K/N90K/P208A/P217A/Q86G/Q94H/R138H/R169H/T345S); assay: MHC binding assay: UV-ligand exchange with beta2m ELISA (exchange yield); details: binding to HLA-A*02:01, β2m ELISA
Summary of the method: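 Exchange yield reflects how much β2m remains bound, measured by ELISA: streptavidin capture of 100-fold diluted monomers, HRP anti-β2m at 37° C. for 1 h, TMB read at 450 nm. Monomers come from UV cleavage of a conditional HLA-A*02:01 ligand in the presence of the candidate peptide.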

Row | Substance | Peptide exchange (MHC class I binding score, peptide exchange yield)
1 | 43 (VLSSLEINI; listed as Homo sapiens) [compound 43] | “++” (≥20% = ++)
2 | 190 (FLSSLTETI; listed as Homo sapiens) [compound 190] | “+++” (≥50 = +++)
3 | 271 (LVYPLELYPA; listed as Homo sapiens) [compound 271] | “+++” (≥50 = +++)
4 | 92 (YLIPFTGIVGL; listed as Homo sapiens) [compound 92] | “++” (≥20% = ++)
5 | 132 (LLVEQPPLAGV; listed as Homo sapiens) [compound 132] | “+++” (≥50 = +++)
6 | 426 (RLADKSVLV; listed as Homo sapiens) [compound 426] | “+++” (≥50 = +++)
7 | 390 (ALFMKQIYL; listed as Homo sapiens) [compound 390] | “+++” (≥50 = +++)
8 | 185 (FLIDDKGYTL; listed as Homo sapiens) [compound 185] | “++” (≥20% = ++)
9 | 238 (YLISFQTHI; listed as Homo sapiens) [compound 238] | “+++” (≥50 = +++)
10 | 78 (SLFSSLEPQIQPV; listed as Homo sapiens) [compound 78] | “+++” (≥50 = +++)
11 | 446 (QLIPALAKV; listed as Homo sapiens) [compound 446] | “+++” (≥50 = +++)
12 | 237 (ALLEASGTLLL; listed as Homo sapiens) [compound 237] | “++++” (≥75% = ++++)
13 | 4 (GIMEHITKI; listed as Homo sapiens) [compound 4] | “++++” (≥75% = ++++)
14 | 474 (YLDPALELGPRNV; listed as Homo sapiens) [compound 474] | “+++” (≥50 = +++)
15 | 187 (RQISIRGIVGV; listed as Homo sapiens) [compound 187] | “+++” (≥50 = +++)
16 | 210 (LLLNAVLTV; listed as Homo sapiens) [compound 210] | “++” (≥20% = ++)
17 | 87 (ALPEAPAPLLPHIT; listed as Homo sapiens) [compound 87] | “++” (≥20% = ++)
18 | 66 (FLDENIGGVAV; listed as Homo sapiens) [compound 66] | “+++” (≥50 = +++)
19 | 204 (KIAENVEEV; listed as Homo sapiens) [compound 204] | “++” (≥20% = ++)
20 | 211 (LLWPGAALL; listed as Homo sapiens) [compound 211] | “++” (≥20% = ++)
21 | 235 (YLNDLHEVLL; listed as Homo sapiens) [compound 235] | “++++” (≥75% = ++++)
22 | 31 (YLAPELFVNV; listed as Homo sapiens) [compound 31] | “++” (≥20% = ++)
23 | 236 (GLLEAKVSL; listed as Homo sapiens) [compound 236] | “+++” (≥50 = +++)

Row | Substance | Peptide exchange (MHC class I binding score, peptide exchange yield)
24 | 385 (SLLEQGLVEA; listed as Homo sapiens) [compound 385] | “++” (≥20% = ++)
25 | 374 (FLLQQHLISA; listed as Homo sapiens) [compound 374] | “++” (≥20% = ++)
26 | 176 (YLMEGSYNKVFL; listed as Homo sapiens) [compound 176] | “++” (≥20% = ++)
27 | 316 (ILLERLWYV; listed as Homo sapiens) [compound 316] | “+++” (≥50 = +++)
28 | 456 (LLIGHLERV; listed as Homo sapiens) [compound 456] | “+++” (≥50 = +++)
29 | 313 (VLFDDELLMV; listed as Homo sapiens) [compound 313] | “+++” (≥50 = +++)
30 | 49 (YLPAVFEEV; listed as Homo sapiens) [compound 49] | “+++” (≥50 = +++)
31 | 299 (YLLETSGNL; listed as Homo sapiens) [compound 299] | “+++” (≥50 = +++)
32 | 216 (NLWEDPYYL; listed as Homo sapiens) [compound 216] | “+++” (≥50 = +++)
33 | 40 (TLLVKVFSV; listed as Homo sapiens) [compound 40] | “+++” (≥50 = +++)
34 | 284 (ILLSQTTGV; listed as Homo sapiens) [compound 284] | “+++” (≥50 = +++)
35 | 392 (ALLHPQGFEV; listed as Homo sapiens) [compound 392] | “++” (≥20% = ++)
36 | 133 (KVLSNIHTV; listed as Homo sapiens) [compound 133] | “++” (≥20% = ++)
37 | 252 (LLIGTDVSL; listed as Homo sapiens) [compound 252] | “+++” (≥50 = +++)
38 | 439 (YLLQEIYGI; listed as Homo sapiens) [compound 439] | “+++” (≥50 = +++)
39 | 75 (GLLEVMVNL; listed as Homo sapiens) [compound 75] | “+++” (≥50 = +++)
40 | 436 (HLAEVSAEV; listed as Homo sapiens) [compound 436] | “+++” (≥50 = +++)
41 | 32 (KLDDLTQDLTV; listed as Homo sapiens) [compound 32] | “++” (≥20% = ++)
42 | 205 (SLYPGTETMGL; listed as Homo sapiens) [compound 205] | “+++” (≥50 = +++)
43 | 241 (SLVEVNPAYSV; listed as Homo sapiens) [compound 241] | “+++” (≥50 = +++)
44 | 254 (TLLAFIMEL; listed as Homo sapiens) [compound 254] | “+++” (≥50 = +++)
45 | 301 (FLVEDLVDSL; listed as Homo sapiens) [compound 301] | “+++” (≥50 = +++)
46 | 51 (LLPDLEFYV; listed as Homo sapiens) [compound 51] | “++++” (≥75% = ++++)

Results, then the substance that gave them:

Row | Peptide exchange (MHC class I binding score, peptide exchange yield) | Substance
47 | “+++” (≥50 = +++) | 490 (FLLQHVQEL; listed as Homo sapiens) [compound 490]
48 | “+++” (≥50 = +++) | 608 (SLLSVSHAL; listed as Homo sapiens) [compound 608]
49 | “+++” (≥50 = +++) | 598 (FLFPHSVLV; listed as Homo sapiens) [compound 598]
50 | “+++” (≥50 = +++) | 623 (YLVEDIQHI; listed as Homo sapiens) [compound 623]
51 | “+++” (≥50 = +++) | 604 (SILDRDDIFV; listed as Homo sapiens) [compound 604]
52 | “+++” (≥50 = +++) | 498 (KLWTGGLDNTV; listed as Homo sapiens) [compound 498]
53 | “+++” (≥50 = +++) | 497 (GLLEKLTAI; listed as Homo sapiens) [compound 497]
54 | “++++” (≥75% = ++++) | 621 (VLMDRLPSLL; listed as Homo sapiens) [compound 621]
55 | “+++” (≥50 = +++) | 492 (SLFDGFADGLGV; listed as Homo sapiens) [compound 492]
56 | “+++” (≥50 = +++) | 529 (LLADELITV; listed as Homo sapiens) [compound 529]
57 | “+++” (≥50 = +++) | 484 (SLIEKVTQL; listed as Homo sapiens) [compound 484]
58 | “+++” (≥50 = +++) | 486 (AVMESIQGV; listed as Homo sapiens) [compound 486]
59 | “++++” (≥75% = ++++) | 553 (SLLNQDLHWSL; listed as Homo sapiens) [compound 553]
60 | “++” (≥20% = ++) | 510 (KLYSVVSQL; listed as Homo sapiens) [compound 510]
61 | “+++” (≥50 = +++) | 485 (NVPDSFNEV; listed as Homo sapiens) [compound 485]
62 | “+++” (≥50 = +++) | 583 (ILANDGVLLAA; listed as Homo sapiens) [compound 583]
63 | “+++” (≥50 = +++) | 567 (SLLPLDDIVRV; listed as Homo sapiens) [compound 567]
64 | “+++” (≥50 = +++) | 600 (ALAAPDIVPAL; listed as Homo sapiens) [compound 600]
65 | “+++” (≥50 = +++) | 555 (YVLEGLKSV; listed as Homo sapiens) [compound 555]
66 | “+++” (≥50 = +++) | 560 (ALWDIETGQQTTT; listed as Homo sapiens) [compound 560]
67 | “+++” (≥50 = +++) | 607 (RLYSGISGLEL; listed as Homo sapiens) [compound 607]
